Test results published in patent US11441131B2, “Heparosan synthases and use thereof for saccharide synthesis” (The Regents of the University of California, priority 2019, dated 2022).

What was measured:
[1] = Protein expression and purification; design: species or system E. coli BL21 (DE3); settings: per L culture
Description: Protein expression and purification. The plasmid-bearing E. coli BL21(DE3) cells were cultured in 1 L of LB-rich media (10 g/L tryptone, 5 g/L yeast extract and 10 g/L NaCl) supplemented with ampicillin (100 μg/mL). Expression of the target protein was achieved by inducing the E. coli culture with 0.1 mM of isopropyl-1-thio-β-D-galactopyranoside (IPTG) when OD600 nm reached 0.8-1.0, followed by incubating at 20° C. for 20 h with shaking at 250 rpm in a C25KC incubator shaker (New Brunswick Scientific, Edison, N.J.). Histidine-tagged target proteins were purified from cell lysate. To obtain the cell lysate, cell pellet harvested by centrifugation at 2,795 g for 50 min was resuspended (25 mL/L cell culture) in lysis buffer (Tris-HCl, 100 mM, pH 8.0 with 0.1% Triton X-100). Sonication protocol was 2 s (sonication)/3 s (rest) for a total of 6 min on ice. Lysed cells were centrifuged at 5,000 g for 50 min and the supernatant (lysate) was collected. Purification of histidine-tagged proteins from the lysate was achieved using a Ni′-resin column. The column was pre-equilibrated with 10 column volumes of binding buffer (5 mM imidazole, 0.5 M NaCl, 50 mM Tris-HCl, pH 7.5). The lysate was then loaded, and the column was washed with 10 column volumes of binding buffer and 10 column volumes of washing buffer (16 mM imidazole, 0.5 M NaCl, 50 mM Tris-HCl, pH 7.5). The target protein was eluted with Tris-HCl buffer (50 mM, pH 7.5) containing imidazole (200 mM) and NaCl (0.5 M). The fractions containing the purified enzymes were collected, and stored at 4° C.

[2] = Relative activity comparison with acceptor GlcNAcαProNHFmoc and UDP-GlcA; format: biochemical; settings: enzyme 1.5 mg/mL; percentage conversion, 30 min, HPLC
Description: (§1) Reactions were stopped by heating reaction mixtures at 70° C. for 10 min, followed by incubation on ice for 30 min and centrifugation at 11,337 g for 15 min.

[3] = Isoelectric point (pI); format: physicochemical
[4] = Relative activity comparison with acceptor GlcAβProNHFmoc (O1) and UDP-GlcNAc; format: biochemical; settings: for GlcNAcα1-4GlcAβProNHFmoc (%): percentage conversion, 30 min, HPLC
Description: as §1

[5] = Behaviour during dialysis; format: physicochemical
[6] = Effect of UDP concentration on reverse glycosylation activity; format: biochemical; settings: O6 1 mM, enzyme 15 μM
Description: Reactions were stopped by heating reaction mixtures at 70° C. for 10 min followed by incubation on ice for 30 min, and centrifugation at 11,337 g for 15 min. Supernatants were analyzed using an Infinity 1290 II HPLC equipped with 1260 Infinity II Diode Array Detector WR (monitored at 254 nm, Agilent Technologies, CA). An AdvanceBio Glycan Mapping column (1.8 μm particle, 2.1×150 mm, Agilent Technologies, CA) was used with a gradient (13 min) of 0.5 mL/min for 90% to 70% acetonitrile and a solution of water with 0.1% TFA for analysis.

[7] = Thermostability assay; format: physicochemical; settings: 30 min incubation at 25-50 °C
Description: Thermostability assays. […] UHPLC detection was carried out similarly as described above for kinetics studies.

[8] = Survival of lyophilization assay; format: physicochemical; settings: dialysis, rehydration, compared with freshly prepared enzyme
Description: Survival of lyophilization assays. […] The resulting powders were stored at −80° C. for 3 days. For activity assays, the dried powder was dissolved in water. […] Chromatographic separation and detection were achieved similarly as described above for the kinetics studies except that an isocratic flow (0.3 mL/min) of a mixed solvent (32% acetonitrile/68% water with 0.1% TFA) was used for elution.

[9] = Coupled-enzyme reverse glycosylation assay with NmLgtA and LacβMU; format: biochemical; settings: His6-Δ80PmHS2 +, UDP-GlcNAc −
Description: Coupled-enzyme reverse glycosylation assay. […] Reactions were stopped by heating reaction mixtures at 70° C. for 10 min followed by incubation on ice for 30 min and centrifuged at 11,337 g for 15 min.

B1: His6-PmHS2: N-terminal His6-tagged wild-type Pasteurella multocida heparosan synthase 2 (SEQ ID NO:6) (protein)
chain: MGSSHHHHHHSSGLVPRGSHMKGKKEMTQKQMTKNPPQHEKENELNTFQNKIDSLKTTLNKDIISQQTLLAKQDSKHPLSESLENENKLLLKQLQLVLQEFEKIYTYNQALEAKLEKDKQTTSITDLYNEVAKSDLGLVKETNSANPLVSIIMTSHNTAQFIEASINSLLLQTYKNIEIIIVDDDSSDNTFEIASRIANTTSKVRVFRLNSNLGTYFAKNTGILKSKGDIIFFQDSDDVCHHERIERCVNILLANKETIAVRCAYSRLAPETQHIIKVNNMDYRLGFITLGMHRKVFQEIGFFNCTTKGSDDEFFHRIAKYYGKEKIKNLLLPLYYNTMRENSLFTDMVEWIDNHNIIQKMSDTRQHYATLFQAMHNETASHDFKNLFQFPRIYDALPVPQEMSKLSNPKIPVYINICSIPSRIAQLQRIIGILKNQCDHFHIYLDGYVEIPDFIKNLGNKATVVHCKDKDNSIRDNGKFILLEELIEKNQDGYYITCDDDIIYPSDYINTMIKKLNEYDDKAVIGLHGILFPSRMTKYFSADRLVYSFYKPLEKDKAVNVLGTGTVSFRVSLFNQFSLSDFTHSGMADIYFSLLCKKNNILQICISRPANWLTEDNRDSETLYHQYRDNDEQQTQLIMENGPWGYSSIYPLVKNHPKFTDLIPCLPFYFL
modifications: N-terminal His6 tag
expression level [1]: 17 to 20 mg/L
GlcAβ1-4GlcNAcαProNHFmoc (%) [2]: 10.3 ± 0.3%
pI [3]: 6.83
efficiency of GlcAβProNHFmoc (O1) over GlcNAcαProNHFmoc as substrate in disaccharide production [4]: 157 fold
GlcNAcα1-4GlcAβProNHFmoc (%) ([4]; enzyme 0.06 mg/mL): 64.5 ± 1.0%
GlcNAcα1-4GlcAβProNHFmoc (%) ([4]; enzyme 1.5 mg/mL): 100%
behaviour during dialysis [5]: precipitated easily during dialysis
O6 (%) ([6]; UDP 0 (nM)): 100%
O1 (%) ([6]; UDP 1 (nM)): 3.3%
O2 (%) ([6]; UDP 1 (nM)): 2.7%
O3 (%) ([6]; UDP 1 (nM)): 1.4%
O4 (%) ([6]; UDP 1 (nM)): 9.6%
O5 (%) ([6]; UDP 1 (nM)): 3.0%
O6 (%) ([6]; UDP 1 (nM)): 64.2%
O8 (%) ([6]; UDP 1 (nM)): 13.5%
O10 (%) ([6]; UDP 1 (nM)): 1.9%
O1 (%) ([6]; UDP 5 (nM)): 3.9%
O2 (%) ([6]; UDP 5 (nM)): 5.5%
O3 (%) ([6]; UDP 5 (nM)): 1.1%
O4 (%) ([6]; UDP 5 (nM)): 8.8%
O5 (%) ([6]; UDP 5 (nM)): 4.8%
O6 (%) ([6]; UDP 5 (nM)): 52.3%
O7 (%) ([6]; UDP 5 (nM)): 0.4%
O8 (%) ([6]; UDP 5 (nM)): 16.0%
O10 (%) ([6]; UDP 5 (nM)): 5.7%
O12 (%) ([6]; UDP 5 (nM)): 0.7%
O1 (%) ([6]; UDP 10 (nM)): 3.1%
O2 (%) ([6]; UDP 10 (nM)): 9.0%
O3 (%) ([6]; UDP 10 (nM)): 0.6%
O4 (%) ([6]; UDP 10 (nM)): 17.7%
O5 (%) ([6]; UDP 10 (nM)): 9.1%
O6 (%) ([6]; UDP 10 (nM)): 36.2%
O7 (%) ([6]; UDP 10 (nM)): 1.1%
O8 (%) ([6]; UDP 10 (nM)): 16.3%
O9 (%) ([6]; UDP 10 (nM)): 0.4%
O10 (%) ([6]; UDP 10 (nM)): 4.6%
O12 (%) ([6]; UDP 10 (nM)): 1.3%

B2: His6-Δ80PmHS2: N-terminal His6-tagged and N-terminal 80 amino acid-truncated PmHS2 (SEQ ID NO:3) (protein)
chain: MGSSHHHHHHSFEKIYTYNQALEAKLEKDKQTTSITDLYNEVAKSDLGLVKETNSANPLVSIIMTSHNTAQFIEASINSLLLQTYKNIEIIIVDDDSSDNTFEIASRIANTTSKVRVFRLNSNLGTYFAKNTGILKSKGDIIFFQDSDDVCHHERIERCVNILLANKETIAVRCAYSRLAPETQHIIKVNNMDYRLGFITLGMHRKVFQEIGFFNCTTKGSDDEFFHRIAKYYGKEKIKNLLLPLYYNTMRENSLFTDMVEWIDNHNIIQKMSDTRQHYATLFQAMHNETASHDFKNLFQFPRIYDALPVPQEMSKLSNPKIPVYINICSIPSRIAQLQRIIGILKNQCDHFHIYLDGYVEIPDFIKNLGNKATVVHCKDKDNSIRDNGKFILLEELIEKNQDGYYITCDDDIIYPSDYINTMIKKLNEYDDKAVIGLHGILFPSRMTKYFSADRLVYSFYKPLEKDKAVNVLGTGTVSFRVSLFNQFSLSDFTHSGMADIYFSLLCKKNNILQICISRPANWLTEDNRDSETLYHQYRDNDEQQTQLIMENGPWGYSSIYPLVKNHPKFTDLIPCLPFYFL
modifications: N-terminal His6 tag
expression level [1]: 60 to 80 mg/L
increase of Tso (temperature at which the enzyme retains 50% of maximum activity) compared to WT [7]: approximately 7 °C
GlcAβ1-4GlcNAcαProNHFmoc (%) [2]: 9.8 ± 0.4%
pI [3]: 6.61
activity after lyophilization [8]: without loss of activity
efficiency of GlcAβProNHFmoc (O1) over GlcNAcαProNHFmoc as substrate in disaccharide production [4]: 130 fold
GlcNAcα1-4GlcAβProNHFmoc (%) ([4]; enzyme 0.06 mg/mL): 50.8 ± 6.0%
GlcNAcα1-4GlcAβProNHFmoc (%) ([4]; enzyme 1.5 mg/mL): 100%
GlcNAcβ1-3LacβMU (%) ([9]; Reaction 1: NmLgtA +, UDP +): 9.7 ± 0.6%
LacβMU (%) ([9]; Reaction 1: NmLgtA +, UDP +): 90.3 ± 0.6%
O2 (%) ([9]; Reaction 1: NmLgtA +, UDP +): 9.3%
O3 (%) ([9]; Reaction 1: NmLgtA +, UDP +): 1.0%
O4 (%) ([9]; Reaction 1: NmLgtA +, UDP +): 16.2%
O5 (%) ([9]; Reaction 1: NmLgtA +, UDP +): 4.4%
O6 (%) ([9]; Reaction 1: NmLgtA +, UDP +): 36.2%
O7 (%) ([9]; Reaction 1: NmLgtA +, UDP +): 3.0%
O8 (%) ([9]; Reaction 1: NmLgtA +, UDP +): 20.4%
O9 (%) ([9]; Reaction 1: NmLgtA +, UDP +): 0.6%
O10 (%) ([9]; Reaction 1: NmLgtA +, UDP +): 7.3%
O12 (%) ([9]; Reaction 1: NmLgtA +, UDP +): 1.7%
LacβMU (%) ([9]; Reaction 2: NmLgtA −, UDP +): 100%
O2 (%) ([9]; Reaction 2: NmLgtA −, UDP +): 11.4%
O3 (%) ([9]; Reaction 2: NmLgtA −, UDP +): 0.7%
O4 (%) ([9]; Reaction 2: NmLgtA −, UDP +): 23.7%
O5 (%) ([9]; Reaction 2: NmLgtA −, UDP +): 5.1%
O6 (%) ([9]; Reaction 2: NmLgtA −, UDP +): 35.1%
O7 (%) ([9]; Reaction 2: NmLgtA −, UDP +): 1.2%
O8 (%) ([9]; Reaction 2: NmLgtA −, UDP +): 15.8%
O9 (%) ([9]; Reaction 2: NmLgtA −, UDP +): 0.5%
O10 (%) ([9]; Reaction 2: NmLgtA −, UDP +): 5.1%
O12 (%) ([9]; Reaction 2: NmLgtA −, UDP +): 1.2%
LacβMU (%) ([9]; Reaction 4: NmLgtA +, UDP −): 100%
O6 (%) ([9]; Reaction 4: NmLgtA +, UDP −): 100%
behaviour during dialysis [5]: remained soluble
O6 (%) ([6]; UDP 0 (nM)): 100%
O4 (%) ([6]; UDP 1 (nM)): 6.7%
O5 (%) ([6]; UDP 1 (nM)): 2.6%
O6 (%) ([6]; UDP 1 (nM)): 81.6%
O8 (%) ([6]; UDP 1 (nM)): 7.9%
O10 (%) ([6]; UDP 1 (nM)): 0.8%
O1 (%) ([6]; UDP 5 (nM)): 3.4%
O2 (%) ([6]; UDP 5 (nM)): 1.5%
O3 (%) ([6]; UDP 5 (nM)): 0.6%
O4 (%) ([6]; UDP 5 (nM)): 16.9%
O5 (%) ([6]; UDP 5 (nM)): 4.2%
O6 (%) ([6]; UDP 5 (nM)): 58.0%
O7 (%) ([6]; UDP 5 (nM)): 0.4%
O8 (%) ([6]; UDP 5 (nM)): 12.8%
O10 (%) ([6]; UDP 5 (nM)): 1.9%
O12 (%) ([6]; UDP 5 (nM)): 0.2%
O1 (%) ([6]; UDP 10 (nM)): 3.4%
O2 (%) ([6]; UDP 10 (nM)): 7.8%
O3 (%) ([6]; UDP 10 (nM)): 1.5%
O4 (%) ([6]; UDP 10 (nM)): 18.9%
O5 (%) ([6]; UDP 10 (nM)): 3.8%
O6 (%) ([6]; UDP 10 (nM)): 38.0%
O7 (%) ([6]; UDP 10 (nM)): 1.8%
O8 (%) ([6]; UDP 10 (nM)): 18.6%
O9 (%) ([6]; UDP 10 (nM)): 0.7%
O10 (%) ([6]; UDP 10 (nM)): 4.2%
O12 (%) ([6]; UDP 10 (nM)): 1.1%
